Biological target: the molecule itself
Experiment: crystal structure of the NC1 hexamer, 2.0 Å
Procedure: The heavy atom soak screens were carried out at beamlines 1-5 and 9-2 of Stanford Syncrhortron Radiation Laboratory (SSRL) and beamline X8C of National Synchrotron Light Source (NSLS) at Brookhaven National Laboratory. The Br-MAD data sets used in this study were collected at SSRL and processed using DENZO and […] programs of HKL2000 suite (39). The Br⁻ sites were located using SOLVE program (40) and 37 highest peaks (>6σ) were used for phasing the reflections at 2.2 Å resolution. The resulting phases were improved by solvent flattening using RESOLVE (41) and the electron density map was calculated using FFT program of CCP4 suite (42). Polypeptides of two α1 chains and one α2 chain (chains A-C) were traced using the TOM FRODO graphics program (43). The complete asymmetric unit was generated using non-crystallographic symmetry (“NCS”) relations obtained from Br⁻ sites—first the second trimer (chains D-F) was generated to complete one hexamer and then the second hexamer (chains G-L) was generated from the first hexamer. […] The structure was analyzed using SETOR(45), GRASP(46), and SURFNET(47) graphics software packages and various utility programs in CCP4 suite. The hexamer interface was analyzed using HBPLUS(48) and protein-protein interaction web server (http:/www.biochem.uc1.ac.uk/bsm/PP/server/). […]

B1: type IV collagen α1 chain NC1 domain (bovine lens basement membrane) (other, UniProt Q7SIB2 1441-1669, looked up)
chain: SVDHGFLVTRHSQTTDDPQCPPGTKILYHGYSLLYVQGNERAHGQDLGTAGSCLRKFSTMPFLFCNINNVCNFASRNDYSYWLSTPEPMPMSMAPITGENIRPFISRCAVCEAPAMVMAVHSQTIQIPQCPTGWSSLWIGYSFVMHTSAGAEGSGQALASPGSCLEEFRSAPFIECHGRGTCNYYANAYSFWLATIERSEMFKKPTPSTLKAGELRTHVSRCQVCMRRT
notes: domain: NC1; 5-6 N-terminal and 2 C-terminal residues are disordered in the map; also called α1 NC1; α1(IV) NC1
B1: binds.

B2: type IV collagen (α1)2.α2 NC1 trimer (bovine lens basement membrane) (other)
chain 1: SVDHGFLVTRHSQTTDDPQCPPGTKILYHGYSLLYVQGNERAHGQDLGTAGSCLRKFSTMPFLFCNINNVCNFASRNDYSYWLSTPEPMPMSMAPITGENIRPFISRCAVCEAPAMVMAVHSQTIQIPQCPTGWSSLWIGYSFVMHTSAGAEGSGQALASPGSCLEEFRSAPFIECHGRGTCNYYANAYSFWLATIERSEMFKKPTPSTLKAGELRTHVSRCQVCMRRT
chain 2: ISIGYLLVKHSQTDQEPMCPVGMNKLWSGYSLLYFEGQEKAHNQDLGLAGSCLARFSTMPFLYCNPGDVCYYASRNDKSYWLSTTAPLPMMPVAEEDIRPYISRCSVCEAPAVAIAVHSQDVSIPHCPAGWRSLWIGYSFLMHTAAGDEGGGQSLVSPGSCLEDFRATPFIECNGARGTCHYYANKYSFWLTTIPEQSFQGTPSADTLKAGLIRTHISRCQVCMKNL
notes: domain: NC1; Two such trimers make the [(α1)2.α2]2 NC1 hexamer that was crystallized. m3 is used for facts told of the trimer-trimer (hexamer) interface as a whole; also called protomer NC1 trimer; half of the [(α1)2.α2]2 NC1 hexamer
B2: binds.

Source: US20030100510A1 (KANSAS UNIVERSITY MEDICAL CENTER, published 2003)
